Protein stability index data for 94 variants are collected here from the supplement of paper PMC10567573.

B1: EPB41L3 (parent)
chain: SDYISEFRFAPNHTKELEDKVIEL
B2: ZNF263 (parent)
chain: QRTHTGEKPYKCPECGEIFAHSSN
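Also: lentivirally expressed fusions sorted by FACS into six bins by GFP to DsRed ratio, PSI derived from sequencing read proportions per bin multiplied by bin number.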

The first data set covers variants of B1. Kind of data set: protein stability index of a GFP-peptide fusion (GPS, HEK-293T) (PSI 1-6); higher = more stable. The conditions noted are these: c terminus: a fixed tail appended.
On to SDYISEFRFAPNHTKELEDKVWEL [I22W], for which the protein stability index worked out at 2.45. With SDYISEFRFAPNHTKELEDKVCEL [I22C], the protein stability index was determined as 2.19. On the same count and under the same terms, then SDYISEFRFAPNHTKELEDKVTEL [I22T], with 2.56.

Another data set covers variants of B2. The description is as above. The conditions noted are these: c terminus: a fixed tail appended.
For QRWHTGEKPYKCPECGEIFAHSSN [T3W], the protein stability index turned out to be 2.53. With QRGHTGEKPYKCPECGEIFAHSSN [T3G], the protein stability index turned out to be 4.28. Same read-out and setting: the value for QRYHTGEKPYKCPECGEIFAHSSN [T3Y] was 2.58; that for QREHTGEKPYKCPECGEIFAHSSN [T3E] was 3.51. In the case of QRHHTGEKPYKCPECGEIFAHSSN [T3H], the protein stability index came out at 3.51. On to QRKHTGEKPYKCPECGEIFAHSSN [T3K], for which the protein stability index worked out at 3.28. The same measure, in the same setting: then QRSHTGEKPYKCPECGEIFAHSSN [T3S], with 3.43. Regarding QRCHTGEKPYKCPECGEIFAHSSN [T3C], the protein stability index is 3.27.

As to QRNHTGEKPYKCPECGEIFAHSSN [T3N], the protein stability index is 3.79. On the same count and under the same terms, then QRAHTGEKPYKCPECGEIFAHSSN [T3A], with 3.55; and QRPHTGEKPYKCPECGEIFAHSSN [T3P], with 3.37. Same read-out and setting: the value for QRIHTGEKPYKCPECGEIFAHSSN [T3I] was 2.93; that for QRMHTGEKPYKCPECGEIFAHSSN [T3M] was 3.43; that for QRFHTGEKPYKCPECGEIFAHSSN [T3F] was 2.67. Still for that read-out and setting: the value for QRLHTGEKPYKCPECGEIFAHSSN [T3L] was 3.31. On to QRDHTGEKPYKCPECGEIFAHSSN [T3D], for which the protein stability index stood at 3.5.

Turning to QRVHTGEKPYKCPECGEIFAHSSN [T3V], the protein stability index is 3.04. Same read-out and setting: the value for QRRHTGEKPYKCPECGEIFAHSSN [T3R] was 2.85; that for QRQHTGEKPYKCPECGEIFAHSSN [T3Q] was 2.86; that for LRTHTGEKPYKCPECGEIFAHSSN [Q1L] was 2.76. The same measure, in the same setting: the value for SRTHTGEKPYKCPECGEIFAHSSN [Q1S] was 3.14.

Turning to KRTHTGEKPYKCPECGEIFAHSSN [Q1K], the protein stability index was found to be 2.72. Still for that read-out and setting: the value for WRTHTGEKPYKCPECGEIFAHSSN [Q1W] was 2.01; that for VRTHTGEKPYKCPECGEIFAHSSN [Q1V] was 2.85.

YRTHTGEKPYKCPECGEIFAHSSN [Q1Y]: the protein stability index was determined as 2.57. Consider ARTHTGEKPYKCPECGEIFAHSSN [Q1A], for which the protein stability index is 2.49.

For the variant DRTHTGEKPYKCPECGEIFAHSSN [Q1D], the protein stability index was 3.36.

For TRTHTGEKPYKCPECGEIFAHSSN [Q1T], the protein stability index stood at 2.82.

In the case of ERTHTGEKPYKCPECGEIFAHSSN [Q1E], the protein stability index worked out at 3.46. The same measure, in the same setting: then IRTHTGEKPYKCPECGEIFAHSSN [Q1I], with 2.54. For NRTHTGEKPYKCPECGEIFAHSSN [Q1N], the protein stability index amounted to 3.46. The same measure, in the same setting: then PRTHTGEKPYKCPECGEIFAHSSN [Q1P], with 3.7; and HRTHTGEKPYKCPECGEIFAHSSN [Q1H], with 3.6. Still for that read-out and setting: then MRTHTGEKPYKCPECGEIFAHSSN [Q1M], with 2.71. For CRTHTGEKPYKCPECGEIFAHSSN [Q1C], the protein stability index amounted to 4.76.

On to RRTHTGEKPYKCPECGEIFAHSSN [Q1R], for which the protein stability index came out at 2.97.

On to GRTHTGEKPYKCPECGEIFAHSSN [Q1G], for which the protein stability index is 3.06.

Consider FRTHTGEKPYKCPECGEIFAHSSN [Q1F], for which the protein stability index is 2.74. With QRTHGGEKPYKCPECGEIFAHSSN [T5G], the protein stability index was 3.41. The same measure, in the same setting: then QRTHLGEKPYKCPECGEIFAHSSN [T5L], with 2.99. In the case of QRTHCGEKPYKCPECGEIFAHSSN [T5C], the protein stability index turned out to be 3.81. The same measure, in the same setting: the value for QRTHKGEKPYKCPECGEIFAHSSN [T5K] was 3.

Take QRTHHGEKPYKCPECGEIFAHSSN [T5H]: the protein stability index was determined as 3.75. Same read-out and setting: then QRTHQGEKPYKCPECGEIFAHSSN [T5Q], with 3.65; and QRTHMGEKPYKCPECGEIFAHSSN [T5M], with 3.09. Consider QRTHIGEKPYKCPECGEIFAHSSN [T5I], for which the protein stability index is 3.03. The same measure, in the same setting: then QRTHFGEKPYKCPECGEIFAHSSN [T5F], with 2.92; and QRTHDGEKPYKCPECGEIFAHSSN [T5D], with 3.6. Still for that read-out and setting: then QRTHAGEKPYKCPECGEIFAHSSN [T5A], with 3.25; and QRTHNGEKPYKCPECGEIFAHSSN [T5N], with 3.57. On the same count and under the same terms, the value for QRTHRGEKPYKCPECGEIFAHSSN [T5R] was 2.27; that for QRTHPGEKPYKCPECGEIFAHSSN [T5P] was 2.74; that for QRTHEGEKPYKCPECGEIFAHSSN [T5E] was 2.89.

For QWTHTGEKPYKCPECGEIFAHSSN [R2W], the protein stability index was found to be 2.9. On the same count and under the same terms, the value for QFTHTGEKPYKCPECGEIFAHSSN [R2F] was 2.82; that for QETHTGEKPYKCPECGEIFAHSSN [R2E] was 3.78. The same measure, in the same setting: the value for QITHTGEKPYKCPECGEIFAHSSN [R2I] was 3.32; that for QLTHTGEKPYKCPECGEIFAHSSN [R2L] was 3.6; that for QVTHTGEKPYKCPECGEIFAHSSN [R2V] was 2.88.

For the variant QQTHTGEKPYKCPECGEIFAHSSN [R2Q], the protein stability index is 3.3.

QGTHTGEKPYKCPECGEIFAHSSN [R2G]: the protein stability index is 4.29. Same read-out and setting: the value for QDTHTGEKPYKCPECGEIFAHSSN [R2D] was 4.06; that for QTTHTGEKPYKCPECGEIFAHSSN [R2T] was 3.45; that for QSTHTGEKPYKCPECGEIFAHSSN [R2S] was 3.88. Turning to QCTHTGEKPYKCPECGEIFAHSSN [R2C], the protein stability index turned out to be 4.86. The same measure, in the same setting: then QMTHTGEKPYKCPECGEIFAHSSN [R2M], with 2.62; and QATHTGEKPYKCPECGEIFAHSSN [R2A], with 3.34. On the same count and under the same terms, then QNTHTGEKPYKCPECGEIFAHSSN [R2N], with 4.07; and QYTHTGEKPYKCPECGEIFAHSSN [R2Y], with 3.02; and QKTHTGEKPYKCPECGEIFAHSSN [R2K], with 2.92. The same measure, in the same setting: the value for QHTHTGEKPYKCPECGEIFAHSSN [R2H] was 4.35. Take QPTHTGEKPYKCPECGEIFAHSSN [R2P]: the protein stability index came out at 3.77. The same measure, in the same setting: then QRTPTGEKPYKCPECGEIFAHSSN [H4P], with 3.27; and QRTMTGEKPYKCPECGEIFAHSSN [H4M], with 3.44. QRTITGEKPYKCPECGEIFAHSSN [H4I]: the protein stability index came out at 3.01. Still for that read-out and setting: then QRTYTGEKPYKCPECGEIFAHSSN [H4Y], with 2.77; and QRTQTGEKPYKCPECGEIFAHSSN [H4Q], with 3.52; and QRTKTGEKPYKCPECGEIFAHSSN [H4K], with 3.77. On the same count and under the same terms, the value for QRTTTGEKPYKCPECGEIFAHSSN [H4T] was 3.02. Same read-out and setting: the value for QRTFTGEKPYKCPECGEIFAHSSN [H4F] was 3.37. On to QRTGTGEKPYKCPECGEIFAHSSN [H4G], for which the protein stability index came out at 3.25.

Turning to QRTRTGEKPYKCPECGEIFAHSSN [H4R], the protein stability index was 3.58. On the same count and under the same terms, then QRTETGEKPYKCPECGEIFAHSSN [H4E], with 3.02.

With QRTSTGEKPYKCPECGEIFAHSSN [H4S], the protein stability index came out at 3.7. On to QRTCTGEKPYKCPECGEIFAHSSN [H4C], for which the protein stability index was determined as 3.29.

Turning to QRTWTGEKPYKCPECGEIFAHSSN [H4W], the protein stability index was found to be 3.08.

With QRTLTGEKPYKCPECGEIFAHSSN [H4L], the protein stability index is 3.4. Still for that read-out and setting: the value for QRTDTGEKPYKCPECGEIFAHSSN [H4D] was 3.98; that for QRTVTGEKPYKCPECGEIFAHSSN [H4V] was 2.85; that for QRTNTGEKPYKCPECGEIFAHSSN [H4N] was 3.28. Same read-out and setting: then QRTATGEKPYKCPECGEIFAHSSN [H4A], with 2.92.
